The data set concerns the molecule itself. As to the kind of experiment: SEC-SAXS; inline SEC (5 x 150 mm Superdex S200, 0.45 ml/min) with SAXS at the Australian Synchrotron SAXS/WAXS beamline, sheath-flow cell; 25 mM MOPS, 250 mM NaCl, 50 mM KCl, 2 mM TCEP, 0.1% NaN3 pH 7.5; 22 °C; mass from I(0), Porod volume and fit of crystal structures. Background: SEC sorts molecules by how far they enter the pores of the column.

B1: glucose isomerase (enzyme)
chain: not shown
notes: glucose isomerase (xylose isomerase), Streptomyces rubiginosus, UniProt P24300 residues 2-388; Tetramer; M from chemical composition 172912 Da for the tetramer; also called GI; GI (tetramer); source: bought: Hampton Research (HR7-100); stored in diluted form, repeated freeze-thaw cycles; no purification step before the SEC-SAXS column
Broadly, the stoichiometry N is a count of units in the complex or per binding partner. Take B1: the “stoichiometry N” value is 4.

Source of the values: paper PMC5586245, “2017 publication guidelines for structural modelling of small-angle scattering data from biomolecules in solution: an update” (Acta Crystallographica. Section D, Structural Biology, 2017).
